Drawing on the Human Domainome abundance scans (Beltran et al. 2025), this text covers abundance fitness for 48 variants.

± gives the uncertainty stated by the source.

First the molecules themselves.
B1: SH3 and PX domain-containing protein 2B, residues 155 to 209; numbered along this chain, A1X283 (parent)
chain: EQYVVVANYQKQESSEISLSVGQVVDIIEKNESGWWFVSTAEEQGWVPATCLEGQ

Variants of B1 are the subject of this data set. The data set is described as follows: abundance fitness (aPCA) (normalised: wild type 0, dead -1); higher = more abundant; growth selection in yeast, the domain comes from the species named. As to conditions: Homo sapiens.
Regarding EQYVVVANYQKQESSEISLSVGQVVDIIEKNESGWWFVSTAEEQGWVPATQLEGQ [C51Q], the abundance fitness is -0.349 ± 0.13.

As to EQYVVVANYQKQESSEISLSVGQVVDIIEKNESGWWFVSTAEEQGWVPATELEGQ [C51E], the abundance fitness is -0.944 ± 0.19.

In the case of EQYVVVANYQKQESSEISLSVGQVVDIIEKNESGWWFVSTAEEQGWVPATGLEGQ [C51G], the abundance fitness is -0.711 ± 0.08. For the variant EQYVVVANYQKQESSEISLSVGQVVDIIEKNESGWWFVSTAEEQGWVPATSLEGQ [C51S], the abundance fitness is -0.219 ± 0.087. For EQYVVVANYQKQESSEISLSVGQVVDIIEKNESGWWFVSTAEEQGWVPATFLEGQ [C51F], the abundance fitness is -0.212 ± 0.1. The result for EQYVVVANYQKQESSEISLSVGQVVDIIEKNESGWWFVSTAEEQGWVPATHLEGQ [C51H] reads -0.322 ± 0.22; that for EQYVVVANYQKQESSEISLSVGQVVDIIEKNESGWWFVSTAEEQGWVPATDLEGQ [C51D], -0.737 ± 0.14. EQYVVVANYQKQESSEISLSVGQVVDIIEKNESGWWFVSTAEEQGWVPATWLEGQ [C51W]: the abundance fitness was -0.596 ± 0.096. Regarding EQYVVVANYQKQESSEISLSVGQVVDIIEKNESGWWFVSTAEEQGWVPATMLEGQ [C51M], the abundance fitness is -0.787 ± 0.36. Regarding EQYVVVANYQKQESSEISLSVGQVVDIIEKNESGWWFVSTAEEQGWVPATALEGQ [C51A], the abundance fitness was -0.12 ± 0.11. As for EQYVVVANYQKQESSEISLSVGQVVDIIEKNESGWWFVSTAEEQGWVPATLLEGQ [C51L], the abundance fitness was -0.267 ± 0.085. Regarding EQYVVVANYQKQESSEISLSVGQVVDIIEKNESGWWFVSTAEEQGWVPATRLEGQ [C51R], the abundance fitness is -0.343 ± 0.071. The result for EQYVVVANYQKQESSEISLSVGQVVDIIEKNESGWWFVSTAEEQGWVPATTLEGQ [C51T] reads -0.222 ± 0.12; that for EQYVVVANYQKQESSEISLSVGQVVDIIEKNESGWWFVSTAEEQGWVPATYLEGQ [C51Y], -0.271 ± 0.12; that for EQYVVVANYQKQESSEISLSVGQVVDIIEKNESGWWFVSTAEEQGWVPMTCLEGQ [A49M], 0.003 ± 0.12.

Consider EQYVVVANYQKQESSEISLSVGQVVDIIEKNESGWWFVSTAEEQGWVPYTCLEGQ [A49Y], for which the abundance fitness is -0.237 ± 0.16. Consider EQYVVVANYQKQESSEISLSVGQVVDIIEKNESGWWFVSTAEEQGWVPVTCLEGQ [A49V], for which the abundance fitness is -0.207 ± 0.076. Then EQYVVVANYQKQESSEISLSVGQVVDIIEKNESGWWFVSTAEEQGWVPGTCLEGQ [A49G], with -0.016 ± 0.099. For EQYVVVANYQKQESSEISLSVGQVVDIIEKNESGWWFVSTAEEQGWVPHTCLEGQ [A49H], the abundance fitness stood at 0.118 ± 0.14. As to EQYVVVANYQKQESSEISLSVGQVVDIIEKNESGWWFVSTAEEQGWVPFTCLEGQ [A49F], the abundance fitness was -0.139 ± 0.12.

Consider EQYVVVANYQKQESSEISLSVGQVVDIIEKNESGWWFVSTAEEQGWVPWTCLEGQ [A49W], for which the abundance fitness is -0.586 ± 0.24.

With EQYVVVANYQKQESSEISLSVGQVVDIIEKNESGWWFVSTAEEQGWVPTTCLEGQ [A49T], the abundance fitness is -0.191 ± 0.15. Turning to EQYVVVANYQKQESSEISLSVGQVVDIIEKNESGWWFVSTAEEQGWVPKTCLEGQ [A49K], the abundance fitness was -0.053 ± 0.12. For EQYVVVANYQKQESSEISLSVGQVVDIIEKNESGWWFVSTAEEQGWVPDTCLEGQ [A49D], the abundance fitness is -0.214 ± 0.12. Consider EQYVVVANYQKQESSEISLSVGQVVDIIEKNESGWWFVSTAEEQGWVPQTCLEGQ [A49Q], for which the abundance fitness was -0.327 ± 0.22.

For the variant EQYVVVANYQKQESSEISLSVGQVVDIIEKNESGWWFVSTAEEQGWVPETCLEGQ [A49E], the abundance fitness was -0.273 ± 0.15. Then EQYVVVANYQKQESSEISLSVGQVVDIIEKNESGWWFVSTAEEQGWVPLTCLEGQ [A49L], with -0.012 ± 0.11; and EQYVVVANYQKQESSEISLSVGQVVDIIEKNESGWWFVSTAEEQGWVPNTCLEGQ [A49N], with 0.02 ± 0.17. In the case of EQYVVVANYQKQESSEISLSVGQVVDIIEKNESGWWFVSTAEEQGWVPRTCLEGQ [A49R], the abundance fitness is -0.146 ± 0.074. Then EQYVVVANYQKQESSEISLSVGQVVDIIEKNESGWWFVSTAEEQGWVPCTCLEGQ [A49C], with 0.045 ± 0.14. On to EQYVVVANYQKQESSEISLSVGQVVDIIEKNESGWWFVSTAEEQGWVPPTCLEGQ [A49P], for which the abundance fitness was -0.105 ± 0.1. Take EQYVVVANYQKQESSEISLSVGQVVDIIEKNESGWWFVSTAEEQGWVPAWCLEGQ [T50W]: the abundance fitness was 0.049 ± 0.12. EQYVVVANYQKQESSEISLSVGQVVDIIEKNESGWWFVSTAEEQGWVPANCLEGQ [T50N]: the abundance fitness was -0.159 ± 0.14.

Take EQYVVVANYQKQESSEISLSVGQVVDIIEKNESGWWFVSTAEEQGWVPASCLEGQ [T50S]: the abundance fitness is -0.046 ± 0.086.

For the variant EQYVVVANYQKQESSEISLSVGQVVDIIEKNESGWWFVSTAEEQGWVPADCLEGQ [T50D], the abundance fitness is -0.093 ± 0.16. On to EQYVVVANYQKQESSEISLSVGQVVDIIEKNESGWWFVSTAEEQGWVPAPCLEGQ [T50P], for which the abundance fitness is -0.134 ± 0.16. Take EQYVVVANYQKQESSEISLSVGQVVDIIEKNESGWWFVSTAEEQGWVPALCLEGQ [T50L]: the abundance fitness was -0.125 ± 0.097. Consider EQYVVVANYQKQESSEISLSVGQVVDIIEKNESGWWFVSTAEEQGWVPAHCLEGQ [T50H], for which the abundance fitness was -0.299 ± 0.18. In the case of EQYVVVANYQKQESSEISLSVGQVVDIIEKNESGWWFVSTAEEQGWVPAYCLEGQ [T50Y], the abundance fitness was -0.095 ± 0.19. For EQYVVVANYQKQESSEISLSVGQVVDIIEKNESGWWFVSTAEEQGWVPAACLEGQ [T50A], the abundance fitness is -0.052 ± 0.086. With EQYVVVANYQKQESSEISLSVGQVVDIIEKNESGWWFVSTAEEQGWVPAQCLEGQ [T50Q], the abundance fitness is -0.161 ± 0.1. For EQYVVVANYQKQESSEISLSVGQVVDIIEKNESGWWFVSTAEEQGWVPACCLEGQ [T50C], the abundance fitness was -0.144 ± 0.16. For EQYVVVANYQKQESSEISLSVGQVVDIIEKNESGWWFVSTAEEQGWVPAKCLEGQ [T50K], the abundance fitness worked out at 0.09 ± 0.12. EQYVVVANYQKQESSEISLSVGQVVDIIEKNESGWWFVSTAEEQGWVPAECLEGQ [T50E]: the abundance fitness is -0.096 ± 0.14.

As to EQYVVVANYQKQESSEISLSVGQVVDIIEKNESGWWFVSTAEEQGWVPAMCLEGQ [T50M], the abundance fitness was -0.243 ± 0.11. On to EQYVVVANYQKQESSEISLSVGQVVDIIEKNESGWWFVSTAEEQGWVPARCLEGQ [T50R], for which the abundance fitness is -0.023 ± 0.082. Regarding EQYVVVANYQKQESSEISLSVGQVVDIIEKNESGWWFVSTAEEQGWVPAFCLEGQ [T50F], the abundance fitness was -0.337 ± 0.14. Then EQYVVVANYQKQESSEISLSVGQVVDIIEKNESGWWFVSTAEEQGWVPAGCLEGQ [T50G], with 0.001 ± 0.083.
